Experimental data taken from PMC3556581 (Nature structural & molecular biology, 2009).

How the values were obtained:
[1] = molecular target: parental cyclophilin A (CypA) (rhesus macaque; identical in sequence …, UniProt P62940 1-165); assay: ITC
[2] = molecular target: CypA domain of rhesus macaque TRIMCyp (RhTC CypA) (rhesus macaque, UniProt P62940 1-165, D66N | R69H); assay: ITC

B1: HIV-2 N-terminal capsid (CA^N) domain (domain or fragment)
chain: not shown
[1]
  Kd: 91 µM
[2]
  Kd: 3 µM
  dH: -1.16 kcal/mol
